Laboratory results published in patent US5830703.
Where no end group is shown, it is not given here.

Target: sodium channel

flow of ^22 Na into cells [%]	Binder
30	ARLDVASEFRKKWNKWALSR (ends and bridges not checked) [proadrenomedullin N-terminal 20 peptide (proAM-N20)]
70	RKKWNKWALSR (ends and bridges not checked) [proadrenomedullin N-terminal 10-20 peptide (proAM-N(10-20))]
